# In article PMC6006435:
# Molecular target: Ageratum yellow vein virus capsid protein (CP), in the geminate virus particle (Ageratum yellow vein virus)
# Experiment: cryo-EM structure; single-particle cryo-EM of purified AYVV geminate particles, D5 symmetry, 3.3 Å; particles in 100 mM sodium phosphate pH 7.0; capsid holds the genomic ssDNA
substance,measurement,value
"Ageratum yellow vein virus capsid protein (CP), in the geminate virus particle (natural protein)",stoichiometry N,110
